Data taken from patent US20080131962.

Assays:
[1] = tested on: ZFN pair Lwt/Rwt (wild-type FokI cleavage domains) (synthetic construct); assay: cleavage_in_vitro; settings: six-fold diluted ZFN, FokI buffer pH 8.5, 2 mM MgCl2, 10 uM ZnCl2, 37 C 2 h
[2] = tested on: ZFN pair Q486E/Q486E (synthetic construct); assay: cleavage_in_vitro; settings: same variant on L and R
[3] = tested on: ZFN pair E490K:I538K/Q486E (synthetic construct); assay: cleavage_in_vitro; settings: average of both orientations
[4] = tested on: ZFN pair E490K/Q486E (synthetic construct); assay: cleavage_in_vitro; settings: average of both orientations
[5] = tested on: ZFN pair E490K/E490K (synthetic construct); assay: cleavage_in_vitro; settings: same variant on L and R
[6] = tested on: ZFN pair L-/R+ (L-Q486E:I499L, R-E490K:I538K) (synthetic construct); assay: cleavage_in_vitro; settings: 2 mM MgCl2, 37 C 2 h
[7] = tested on: ZFN pair E490K:I538K/wt (synthetic construct); assay: cleavage_in_vitro; settings: average of both orientations
[8] = tested on: ZFN pair E490K/Q486E:I499L (synthetic construct); assay: cleavage_in_vitro; settings: average of both orientations
[9] = tested on: ZFN pair L+/R+ (E490K:I538K both) (synthetic construct); assay: cleavage_in_vitro; settings: cleavage lost through lack of dimerization, not of ZFP binding
[10] = tested on: ZFN pair Q486E/wt (synthetic construct); assay: cleavage_in_vitro; settings: average of both orientations
[11] = tested on: ZFN pair L+/R- (L-E490K:I538K, R-Q486E:I499L) (synthetic construct); assay: cleavage_in_vitro
[12] = tested on: ZFN pair L-/R- (Q486E:I499L both) (synthetic construct); assay: cleavage_in_vitro; settings: cleavage lost through lack of dimerization, not of ZFP binding
[13] = tested on: ZFN pair Q486E:I499L/wt (synthetic construct); assay: cleavage_in_vitro; settings: average of both orientations; printed I449L in table
[14] = tested on: ZFN pair E490K/wt (synthetic construct); assay: cleavage_in_vitro; settings: average of both orientations
[15] = tested on: ZFN pair Lwt/Rwt in cells (synthetic construct); assay: cell_activity; settings: HEK293 GFP gene correction
[16] = tested on: ZFN pair L-/R+ in cells (synthetic construct); assay: cell_activity; settings: HEK293 GFP gene correction
[17] = tested on: ZFN pair L+/R+ in cells (synthetic construct); assay: cell_activity; settings: forced homodimer of cleavage domains
[18] = tested on: ZFN pair L-/R- in cells (synthetic construct); assay: cell_activity; settings: forced homodimer of cleavage domains
[19] = tested on: ZFN pair L+/R- in cells (synthetic construct); assay: cell_activity; settings: HEK293 GFP gene correction

| Sequence | activity [1] | cleavage activity relative to wild type (fraction of wt/wt) [2] | cleavage activity relative to wild type (fraction of wt/wt) [3] | cleavage activity relative to wild type (fraction of wt/wt) [4] | cleavage activity relative to wild type (fraction of wt/wt) [5] | activity [6] | cleavage activity relative to wild type (fraction of wt/wt) [7] | cleavage activity relative to wild type (fraction of wt/wt) [8] | cleavage activity relative to wild type (fraction of wt/wt) [9] | cleavage activity relative to wild type (fraction of wt/wt) [10] | activity ([11]; 2 mM MgCl2, 37 C 2 h) | cleavage activity relative to wild type (fraction of wt/wt) ([11]; average of L+/R- and L-/R+, printed I449L in table) | cleavage activity relative to wild type (fraction of wt/wt) [12] | cleavage activity relative to wild type (fraction of wt/wt) [13] | cleavage activity relative to wild type (fraction of wt/wt) [14] | activity (% GFP-positive cells) [15] | activity (% GFP-positive cells) [16] | activity (% GFP-positive cells) [17] | activity (% GFP-positive cells) [18] | activity (% GFP-positive cells) [19] |
| --- | --- | --- | --- | --- | --- | --- | --- | --- | --- | --- | --- | --- | --- | --- | --- | --- | --- | --- | --- | --- |
| TGTTCGGAGCCGCTTTAACCCACTCTGTGGAAGTGCT (double strand) [LR heterodimer target] | 61 % cleaved | 0.19 | 0.32 | 0.96 | 0.96 | 50 % cleaved | 0.74 | 0.97 | 0 | 0.68 | 50 % cleaved | 0.48 | 0 | 0.48 | 1 |  |  |  |  |  |
| TGTTCGGAGCCGCTTTAACCCACTCTGTGGAAGTGCT (double strand) [IL2Rgamma ZFN target in eGFP reporter or endogenous locus] |  |  |  |  |  |  |  |  |  |  |  |  |  |  |  | 1.27 | 1.71 | 0.02 | 0.12 | 1.98 |
